In PMC10998612:
Each block holds one substance with its values, some of them ahead of it.

Key:
[1] = molecular target: fluorescein-labeled peptide corresponding to repeat 3 (PPP1R15A^420-466), wild type (human) (UniProt O75807); assay: fluorescence polarisation; 5 µL 100 nM fluorescein-labeled peptide probe mixed with 5 µL of increasing concentrations of eIF2 trimer or eIF2α-NTD; 20 mM Tris pH 7.4, 0.1 M NaCl, 1 mM TCEP, 0.01% Triton X-100; one-site binding fit; three experiments
[2] = molecular target: extended PPP1R15A^325-636, wild type (bacterially expressed) (human) (UniProt O75807)
[3] = molecular target: eIF2 trimer, endogenous (detected by its α subunit), P05198;P20042;P41091; assay: GFP immunoprecipitation (co-IP) and immunoblot, quantified; conditions: HEK293T cells; 20% (v/v) of immunoprecipitation fractions analyzed; parent: est. 0.14; read off a plot

eIF2^P trimer (phosphorylated eIF2), sequence (P05198 whole entry): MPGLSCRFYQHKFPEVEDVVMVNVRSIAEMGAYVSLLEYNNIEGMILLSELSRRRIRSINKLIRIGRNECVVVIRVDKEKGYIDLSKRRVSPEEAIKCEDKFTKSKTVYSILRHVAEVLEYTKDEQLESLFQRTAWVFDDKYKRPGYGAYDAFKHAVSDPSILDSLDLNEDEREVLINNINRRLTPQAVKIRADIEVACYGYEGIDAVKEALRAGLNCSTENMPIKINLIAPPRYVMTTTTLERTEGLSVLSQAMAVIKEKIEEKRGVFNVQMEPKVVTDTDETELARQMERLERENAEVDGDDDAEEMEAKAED
eIF2^P trimer (phosphorylated eIF2), sequence (P20042 whole entry): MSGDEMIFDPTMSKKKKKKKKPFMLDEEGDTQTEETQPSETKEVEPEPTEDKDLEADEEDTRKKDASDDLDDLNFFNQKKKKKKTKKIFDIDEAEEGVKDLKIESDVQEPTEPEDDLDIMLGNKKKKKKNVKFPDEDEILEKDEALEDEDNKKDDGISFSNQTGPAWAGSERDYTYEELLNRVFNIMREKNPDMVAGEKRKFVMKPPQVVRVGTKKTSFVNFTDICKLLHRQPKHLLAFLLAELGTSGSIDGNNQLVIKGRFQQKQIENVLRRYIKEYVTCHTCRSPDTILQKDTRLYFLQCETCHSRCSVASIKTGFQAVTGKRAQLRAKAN
eIF2^P trimer (phosphorylated eIF2), sequence (P41091 whole entry): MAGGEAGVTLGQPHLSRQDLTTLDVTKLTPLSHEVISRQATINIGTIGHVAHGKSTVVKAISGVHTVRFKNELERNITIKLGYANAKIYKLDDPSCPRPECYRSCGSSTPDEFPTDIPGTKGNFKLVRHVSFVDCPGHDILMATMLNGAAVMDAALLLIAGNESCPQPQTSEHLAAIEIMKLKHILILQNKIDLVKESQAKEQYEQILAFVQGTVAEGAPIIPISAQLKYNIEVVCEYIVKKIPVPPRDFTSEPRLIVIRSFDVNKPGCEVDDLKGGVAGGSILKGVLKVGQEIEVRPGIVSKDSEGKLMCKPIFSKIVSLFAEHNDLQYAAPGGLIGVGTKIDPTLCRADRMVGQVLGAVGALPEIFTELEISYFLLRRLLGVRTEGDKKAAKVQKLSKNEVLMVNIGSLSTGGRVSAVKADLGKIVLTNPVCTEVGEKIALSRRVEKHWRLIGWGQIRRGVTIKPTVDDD
eIF2 trimer (recombinant, not phosphorylated), sequence (P05198 whole entry): as the sequence (P05198 whole entry) above
eIF2 trimer (recombinant, not phosphorylated), sequence (P20042 whole entry): as the sequence (P20042 whole entry) above
eIF2 trimer (recombinant, not phosphorylated), sequence (P41091 whole entry): as the sequence (P41091 whole entry) above
fluorescein-labeled peptide corresponding to repeat 3 (PPP1R15A^420-466), wild type (human), sequence (O75807 420-466): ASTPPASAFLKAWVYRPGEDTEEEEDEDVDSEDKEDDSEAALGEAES
full-length human PPP1R15A-GFP fusion protein, wild type, sequence (O75807 whole entry, stated change not applied, the tested form may be a part): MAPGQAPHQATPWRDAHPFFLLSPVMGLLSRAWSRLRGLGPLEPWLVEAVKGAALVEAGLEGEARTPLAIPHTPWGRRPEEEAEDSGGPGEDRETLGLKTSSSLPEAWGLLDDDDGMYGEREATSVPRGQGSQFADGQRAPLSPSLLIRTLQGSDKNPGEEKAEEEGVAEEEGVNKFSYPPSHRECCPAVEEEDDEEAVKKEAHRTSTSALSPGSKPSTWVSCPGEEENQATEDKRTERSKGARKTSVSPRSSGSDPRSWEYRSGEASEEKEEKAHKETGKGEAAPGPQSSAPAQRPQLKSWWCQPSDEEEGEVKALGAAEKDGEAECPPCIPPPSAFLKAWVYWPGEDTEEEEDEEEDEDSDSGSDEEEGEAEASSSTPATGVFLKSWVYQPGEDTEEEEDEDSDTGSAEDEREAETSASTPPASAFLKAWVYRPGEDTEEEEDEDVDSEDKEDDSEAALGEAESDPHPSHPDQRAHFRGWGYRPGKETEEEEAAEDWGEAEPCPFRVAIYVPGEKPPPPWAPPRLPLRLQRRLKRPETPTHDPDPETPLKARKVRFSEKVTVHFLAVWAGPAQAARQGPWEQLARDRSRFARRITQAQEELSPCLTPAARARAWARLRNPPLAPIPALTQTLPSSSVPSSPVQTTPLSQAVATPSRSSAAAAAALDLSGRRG
extended PPP1R15A^325-636, wild type (bacterially expressed) (human), sequence (O75807 325-636): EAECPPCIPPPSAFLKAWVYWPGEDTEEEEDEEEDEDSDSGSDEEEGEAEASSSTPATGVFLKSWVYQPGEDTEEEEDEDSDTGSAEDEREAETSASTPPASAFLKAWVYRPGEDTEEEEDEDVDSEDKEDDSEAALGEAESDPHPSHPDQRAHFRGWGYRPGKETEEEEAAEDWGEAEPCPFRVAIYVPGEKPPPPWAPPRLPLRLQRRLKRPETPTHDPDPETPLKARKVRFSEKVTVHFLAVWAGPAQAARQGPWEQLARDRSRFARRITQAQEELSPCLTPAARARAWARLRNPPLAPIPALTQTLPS

K (1/2max) [1]: 220 nM
Substance: eIF2 trimer (recombinant, not phosphorylated) (from UniProt P05198 1-315; P20042 1-333; P41091 1-472) (complex)

dephosphorylation of the eIF2^P trimer in vitro (PhosTag SDS-PAGE, kcat/Km) by the extended PPP1R15A^325-636-PP1-G-actin holophosphatase against the core PPP1R15A^533-624-PP1-G-actin holophosphatase (fold (kcat/Km)) [2]: 10
Substance: eIF2^P trimer (phosphorylated eIF2) (from UniProt P05198 1-315; P20042 1-333; P41091 1-472) (complex)

other: eIF2α/PP1 signal ratio [3]: 0.0084
Substance: full-length human PPP1R15A-GFP fusion protein, wild type (from UniProt O75807) F338A; W342A; F386A; W389A; F428A; W432A; F479A; W482A
